The term Kd denotes the constant that tells how readily two partners part at equilibrium. For orientation: koff means the rate constant with which the complex falls apart. Broadly, the kon is a measure of how fast the partners come together.

Assay [1] addresses T1, Staphylococcus aureus manganese transporter protein MntC, wild type, recombinant (Staphylococcus aureus).
T1 construct: also called wild type MntC; full length MntC; source: recombinant; cloning, expression and purification previously described [3]
T1 chain: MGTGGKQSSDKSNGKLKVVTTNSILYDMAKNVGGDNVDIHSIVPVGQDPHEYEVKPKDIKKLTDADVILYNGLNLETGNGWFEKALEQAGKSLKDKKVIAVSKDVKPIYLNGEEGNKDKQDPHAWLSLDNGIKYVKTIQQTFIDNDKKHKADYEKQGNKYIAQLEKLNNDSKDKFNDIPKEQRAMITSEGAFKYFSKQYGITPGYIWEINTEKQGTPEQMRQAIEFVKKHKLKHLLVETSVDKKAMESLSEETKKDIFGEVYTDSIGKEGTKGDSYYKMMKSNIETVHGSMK
Put plainly: ITC. Conditions: both partners purified.

The target of assay [2] is T2, Histidine-tagged wild-type MntC (pET-19b) (Staphylococcus aureus).
T2 construct: source: E. coli BL21(DE3), purified (HisPur Ni-NTA Agarose, size-exclusion chromatography); not shown: His-tag, N-terminal, kept
T2 chain: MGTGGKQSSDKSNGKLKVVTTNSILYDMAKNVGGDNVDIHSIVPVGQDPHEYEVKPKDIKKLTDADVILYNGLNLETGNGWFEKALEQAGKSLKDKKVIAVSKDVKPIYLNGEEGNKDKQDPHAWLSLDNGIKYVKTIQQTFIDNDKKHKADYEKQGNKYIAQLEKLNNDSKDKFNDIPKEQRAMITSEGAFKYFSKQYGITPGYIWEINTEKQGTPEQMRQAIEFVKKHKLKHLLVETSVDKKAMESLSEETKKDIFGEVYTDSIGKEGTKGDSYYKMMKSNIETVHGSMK
Nature of the assay: BLI. The following applies: both partners purified.

B1: monoclonal antibody mAB 305-78-7 (intact antibody, interference group 2) (antibody, V domains shown)
VH: QVQLQQSGAELARPGASVKMSCKASGYTFTRYTMHWVQQRPGQGLEWIGYINPSSDYTKYNQKFKDKATMTADKSSSTAYMQLSSLTSEDSAVYYCARKEDVGYWYFDFWGTGTTVTVSS
VL: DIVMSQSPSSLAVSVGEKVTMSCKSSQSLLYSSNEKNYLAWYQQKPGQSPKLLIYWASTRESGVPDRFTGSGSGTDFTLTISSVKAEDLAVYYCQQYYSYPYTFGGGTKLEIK
notes: source: generation previously described [3]
For the molecule B1, in assay [1], the Kd turned out to be 1.2 nM and the dH was -19.9 kcal/mol. In assay [2], this molecule had a Kd of 1.2 nM, an off-rate constant (koff) of 0.00024 s⁻¹ and a kon of 220000 M⁻¹ s⁻¹.

These data come from publication PMC5045189, “High Resolution Mapping of Bactericidal Monoclonal Antibody Binding Epitopes on Staphylococcus aureus Antigen MntC” (PLoS Pathogens, 2016).
